± gives the uncertainty stated by the source.
B1: POU domain, class 5, transcription factor 1, residues 134 to 212; numbered along this chain, Q01860 (parent)
chain: EESQDIKALQKELEQFAKLLKQKRITLGYTQADVGLTLGVLFGKVFSQTTICRFEALQLSFKNMCKLRPLLQKWVEEAD

Variants of: B1
Assay: abundance fitness (aPCA) (normalised: wild type 0, dead -1); higher = more abundant; growth selection in yeast, the domain comes from the species named
Conditions: Homo sapiens

| Variant | abundance fitness |
| --- | --- |
| EESQDIKALRKELEQFAKLLKQKRITLGYTQADVGLTLGVLFGKVFSQTTICRFEALQLSFKNMCKLRPLLQKWVEEAD [Q10R] | 0.137 ± 0.063 |
| EESQDIKALSKELEQFAKLLKQKRITLGYTQADVGLTLGVLFGKVFSQTTICRFEALQLSFKNMCKLRPLLQKWVEEAD [Q10S] | -0.111 ± 0.097 |
| EESQDIKALTKELEQFAKLLKQKRITLGYTQADVGLTLGVLFGKVFSQTTICRFEALQLSFKNMCKLRPLLQKWVEEAD [Q10T] | -0.184 ± 0.18 |
| EESQDIKALWKELEQFAKLLKQKRITLGYTQADVGLTLGVLFGKVFSQTTICRFEALQLSFKNMCKLRPLLQKWVEEAD [Q10W] | 0.305 ± 0.084 |
| EESQDIKALYKELEQFAKLLKQKRITLGYTQADVGLTLGVLFGKVFSQTTICRFEALQLSFKNMCKLRPLLQKWVEEAD [Q10Y] | 0.042 ± 0.33 |
| EESQDIKALQAELEQFAKLLKQKRITLGYTQADVGLTLGVLFGKVFSQTTICRFEALQLSFKNMCKLRPLLQKWVEEAD [K11A] | -0.201 ± 0.14 |
| EESQDIKALQCELEQFAKLLKQKRITLGYTQADVGLTLGVLFGKVFSQTTICRFEALQLSFKNMCKLRPLLQKWVEEAD [K11C] | -0.369 ± 0.27 |
| EESQDIKALQDELEQFAKLLKQKRITLGYTQADVGLTLGVLFGKVFSQTTICRFEALQLSFKNMCKLRPLLQKWVEEAD [K11D] | 0.168 ± 0.35 |
| EESQDIKALQEELEQFAKLLKQKRITLGYTQADVGLTLGVLFGKVFSQTTICRFEALQLSFKNMCKLRPLLQKWVEEAD [K11E] | -0.031 ± 0.11 |
| EESQDIKALQGELEQFAKLLKQKRITLGYTQADVGLTLGVLFGKVFSQTTICRFEALQLSFKNMCKLRPLLQKWVEEAD [K11G] | -0.168 ± 0.089 |
| EESQDIKALQIELEQFAKLLKQKRITLGYTQADVGLTLGVLFGKVFSQTTICRFEALQLSFKNMCKLRPLLQKWVEEAD [K11I] | 0.062 ± 0.33 |
| EESQDIKALQLELEQFAKLLKQKRITLGYTQADVGLTLGVLFGKVFSQTTICRFEALQLSFKNMCKLRPLLQKWVEEAD [K11L] | -0.153 ± 0.1 |
| EESQDIKALQMELEQFAKLLKQKRITLGYTQADVGLTLGVLFGKVFSQTTICRFEALQLSFKNMCKLRPLLQKWVEEAD [K11M] | 0.076 ± 0.14 |
| EESQDIKALQNELEQFAKLLKQKRITLGYTQADVGLTLGVLFGKVFSQTTICRFEALQLSFKNMCKLRPLLQKWVEEAD [K11N] | 0.048 ± 0.28 |
| EESQDIKALQPELEQFAKLLKQKRITLGYTQADVGLTLGVLFGKVFSQTTICRFEALQLSFKNMCKLRPLLQKWVEEAD [K11P] | 0.23 ± 0.39 |
| EESQDIKALQQELEQFAKLLKQKRITLGYTQADVGLTLGVLFGKVFSQTTICRFEALQLSFKNMCKLRPLLQKWVEEAD [K11Q] | 0.057 ± 0.17 |
| EESQDIKALQSELEQFAKLLKQKRITLGYTQADVGLTLGVLFGKVFSQTTICRFEALQLSFKNMCKLRPLLQKWVEEAD [K11S] | 0.019 ± 0.12 |
| EESQDIKALQTELEQFAKLLKQKRITLGYTQADVGLTLGVLFGKVFSQTTICRFEALQLSFKNMCKLRPLLQKWVEEAD [K11T] | -0.388 ± 0.3 |

| Variant | abundance fitness |
| --- | --- |
| EESQDIKALQVELEQFAKLLKQKRITLGYTQADVGLTLGVLFGKVFSQTTICRFEALQLSFKNMCKLRPLLQKWVEEAD [K11V] | -0.21 ± 0.12 |
| EESQDIKALQWELEQFAKLLKQKRITLGYTQADVGLTLGVLFGKVFSQTTICRFEALQLSFKNMCKLRPLLQKWVEEAD [K11W] | -0.198 ± 0.13 |
| EESQDIKALQYELEQFAKLLKQKRITLGYTQADVGLTLGVLFGKVFSQTTICRFEALQLSFKNMCKLRPLLQKWVEEAD [K11Y] | 0.067 ± 0.21 |
| EESQDIKALQKALEQFAKLLKQKRITLGYTQADVGLTLGVLFGKVFSQTTICRFEALQLSFKNMCKLRPLLQKWVEEAD [E12A] | -0.345 ± 0.14 |
| EESQDIKALQKDLEQFAKLLKQKRITLGYTQADVGLTLGVLFGKVFSQTTICRFEALQLSFKNMCKLRPLLQKWVEEAD [E12D] | -0.357 ± 0.47 |
| EESQDIKALQKFLEQFAKLLKQKRITLGYTQADVGLTLGVLFGKVFSQTTICRFEALQLSFKNMCKLRPLLQKWVEEAD [E12F] | 0.341 ± 0.3 |
| EESQDIKALQKGLEQFAKLLKQKRITLGYTQADVGLTLGVLFGKVFSQTTICRFEALQLSFKNMCKLRPLLQKWVEEAD [E12G] | -0.35 ± 0.084 |
| EESQDIKALQKHLEQFAKLLKQKRITLGYTQADVGLTLGVLFGKVFSQTTICRFEALQLSFKNMCKLRPLLQKWVEEAD [E12H] | -0.051 ± 0.4 |
| EESQDIKALQKILEQFAKLLKQKRITLGYTQADVGLTLGVLFGKVFSQTTICRFEALQLSFKNMCKLRPLLQKWVEEAD [E12I] | -0.112 ± 0.29 |
| EESQDIKALQKKLEQFAKLLKQKRITLGYTQADVGLTLGVLFGKVFSQTTICRFEALQLSFKNMCKLRPLLQKWVEEAD [E12K] | 0.254 ± 0.12 |
| EESQDIKALQKLLEQFAKLLKQKRITLGYTQADVGLTLGVLFGKVFSQTTICRFEALQLSFKNMCKLRPLLQKWVEEAD [E12L] | -0.312 ± 0.12 |
| EESQDIKALQKMLEQFAKLLKQKRITLGYTQADVGLTLGVLFGKVFSQTTICRFEALQLSFKNMCKLRPLLQKWVEEAD [E12M] | -0.38 ± 0.24 |
| EESQDIKALQKPLEQFAKLLKQKRITLGYTQADVGLTLGVLFGKVFSQTTICRFEALQLSFKNMCKLRPLLQKWVEEAD [E12P] | -0.473 ± 0.42 |
| EESQDIKALQKQLEQFAKLLKQKRITLGYTQADVGLTLGVLFGKVFSQTTICRFEALQLSFKNMCKLRPLLQKWVEEAD [E12Q] | -0.185 ± 0.17 |
| EESQDIKALQKRLEQFAKLLKQKRITLGYTQADVGLTLGVLFGKVFSQTTICRFEALQLSFKNMCKLRPLLQKWVEEAD [E12R] | -0.07 ± 0.071 |
| EESQDIKALQKSLEQFAKLLKQKRITLGYTQADVGLTLGVLFGKVFSQTTICRFEALQLSFKNMCKLRPLLQKWVEEAD [E12S] | -0.094 ± 0.11 |
| EESQDIKALQKTLEQFAKLLKQKRITLGYTQADVGLTLGVLFGKVFSQTTICRFEALQLSFKNMCKLRPLLQKWVEEAD [E12T] | -0.405 ± 0.17 |
